Data taken from publication PMC7950113.

Experiments:
Experiment in all cases: Co-AP mass spectrometry with TMT quantification
[1] = target: oligosaccharyl transferase complex catalytic subunit A [human (endogenous in HEK293 cells)]; conditions: TMT intensities of interactors normalized to Tg intensities, read off a plot
[2] = target: calreticulin [human (endogenous in HEK293 cells)]; conditions: TMT intensities of interactors normalized to Tg intensities, read off a plot
[3] = target: UGGT2; conditions: HEK293 cells; TMT intensities of interactors normalized to Tg intensities; read off a plot
[4] = target: MOGS; conditions: HEK293 cells; TMT intensities of interactors normalized to Tg intensities; read off a plot
[5] = target: PSMC4; conditions: HEK293 cells; TMT intensities of interactors normalized to Tg intensities; read off a plot
[6] = target: PSME2; conditions: HEK293 cells; TMT intensities of interactors normalized to Tg intensities; read off a plot
[7] = target: PSMB4; conditions: HEK293 cells; TMT intensities of interactors normalized to Tg intensities; read off a plot
[8] = target: PRKCSH; conditions: HEK293 cells; TMT intensities of interactors normalized to Tg intensities; read off a plot
[9] = target: PSMD3; conditions: HEK293 cells; TMT intensities of interactors normalized to Tg intensities; read off a plot
[10] = target: PSMA1; conditions: HEK293 cells; TMT intensities of interactors normalized to Tg intensities; read off a plot

Row | Substance | screen value [1] | other: log2 fold change vs WT [3] | other: log2 fold change vs WT [4] | other: log2 fold change vs WT [6] | other: log2 fold change vs WT [7] | other: log2 fold change vs WT [9] | other: log2 fold change vs WT [10] | further results
1 | FLAG-tagged thyroglobulin, WT mutant L2284P [human] / oligosaccharyl transferase complex catalytic subunit A [human (endogenous in HEK293 cells)] chain 1 L2265P | -0.1 log2 |  |  |  |  |  |  | 
2 | FLAG-tagged thyroglobulin, WT mutant C1264R [human] / calreticulin [human (endogenous in HEK293 cells)] chain 1 C1245R |  |  |  |  |  |  |  | screen value [2]: 0.18 log2
3 | FLAG-tagged thyroglobulin, WT mutant G2341R [human] / oligosaccharyl transferase complex catalytic subunit A [human (endogenous in HEK293 cells)] chain 1 G2322R | -0.21 log2 |  |  |  |  |  |  | 
4 | FLAG-tagged thyroglobulin, WT mutant A2234D [human] / oligosaccharyl transferase complex catalytic subunit A [human (endogenous in HEK293 cells)] chain 1 A2215D | -0.15 log2 |  |  |  |  |  |  | 
5 | FLAG-tagged thyroglobulin, WT (from UniProt P01266) C1264R |  | -0.09 log2 | -0.15 log2 | -0.54 log2 | -0.35 log2 | -0.45 log2 | -0.27 log2 | other: log2 fold change vs WT [5]: -0.53 log2; other: log2 fold change vs WT [8]: -0.05 log2
6 | FLAG-tagged thyroglobulin, WT (from UniProt P01266) L2284P |  | 0.49 log2 | -0.02 log2 | -0.45 log2 | -0.51 log2 | -0.33 log2 | -0.04 log2 | other: log2 fold change vs WT [5]: -0.27 log2
7 | FLAG-tagged thyroglobulin, WT mutant A2234D [human] / calreticulin [human (endogenous in HEK293 cells)] chain 1 A2215D |  |  |  |  |  |  |  | screen value [2]: 0.07 log2
8 | FLAG-tagged thyroglobulin, WT (from UniProt P01266) A2234D |  | 0.15 log2 | 0.09 log2 | -0.27 log2 | -0.33 log2 | -0.35 log2 | -0.28 log2 | other: log2 fold change vs WT [8]: -0.39 log2
9 | FLAG-tagged thyroglobulin, WT mutant C1264R [human] / oligosaccharyl transferase complex catalytic subunit A [human (endogenous in HEK293 cells)] chain 1 C1245R | -0.37 log2 |  |  |  |  |  |  | 
10 | FLAG-tagged thyroglobulin, WT mutant G2341R [human] / calreticulin [human (endogenous in HEK293 cells)] chain 1 G2322R |  |  |  |  |  |  |  | screen value [2]: 0.46 log2
11 | FLAG-tagged thyroglobulin, WT (from UniProt P01266) G2341R |  | 0.73 log2 | -0.05 log2 | -0.65 log2 | -0.53 log2 | -0.42 log2 | 0.04 log2 | other: log2 fold change vs WT [5]: -0.51 log2
